# Results taken from patent publication US20240025992A1.
# Molecular target: human CD3 (CD3 epsilon as part of the T cell receptor complex) on cells (human) (UniProt P07766)
# Assay: flow cytometry on Jurkat cells, 10 nM antibody
# human CD3 (CD3 epsilon as part of the T cell receptor complex) on cells (human), sequence (P07766 23-207 limits assumed, one chain of several): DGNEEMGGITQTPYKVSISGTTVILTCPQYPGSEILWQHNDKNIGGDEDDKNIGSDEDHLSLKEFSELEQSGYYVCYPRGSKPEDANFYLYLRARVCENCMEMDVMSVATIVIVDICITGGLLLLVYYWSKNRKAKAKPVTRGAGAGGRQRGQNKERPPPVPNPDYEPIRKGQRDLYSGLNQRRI
substance,measurement,value
UCHT1 (antibody),MFI (arbitrary units),89200
